According to article PMC2997466, “The unstructured C-terminal extension of UvrD interacts with UvrB, but is dispensable for nucleotide excision repair” (DNA Repair, 2009):

T1: ^bioUvrD, full-length UvrD biotinylated at the N-terminus (E. coli, UniProt P03018 1-720, biotin on the lysine of the N-terminal tag … (biotinylated in vivo by BirA))
T1 construct: UvrD (helicase II), E. coli MG1655, whole coding region (720 residues); The tag was inserted at the NcoI site that overlaps the start codon of uvrD; also called biotinylated UvrD; source: E. coli BL21(DE3) with pBirACm and pET28a-^bioUvrD, purified (ammonium sulphate, Softlink Avidin, HiTrap heparin)
T1 sequence (looked up): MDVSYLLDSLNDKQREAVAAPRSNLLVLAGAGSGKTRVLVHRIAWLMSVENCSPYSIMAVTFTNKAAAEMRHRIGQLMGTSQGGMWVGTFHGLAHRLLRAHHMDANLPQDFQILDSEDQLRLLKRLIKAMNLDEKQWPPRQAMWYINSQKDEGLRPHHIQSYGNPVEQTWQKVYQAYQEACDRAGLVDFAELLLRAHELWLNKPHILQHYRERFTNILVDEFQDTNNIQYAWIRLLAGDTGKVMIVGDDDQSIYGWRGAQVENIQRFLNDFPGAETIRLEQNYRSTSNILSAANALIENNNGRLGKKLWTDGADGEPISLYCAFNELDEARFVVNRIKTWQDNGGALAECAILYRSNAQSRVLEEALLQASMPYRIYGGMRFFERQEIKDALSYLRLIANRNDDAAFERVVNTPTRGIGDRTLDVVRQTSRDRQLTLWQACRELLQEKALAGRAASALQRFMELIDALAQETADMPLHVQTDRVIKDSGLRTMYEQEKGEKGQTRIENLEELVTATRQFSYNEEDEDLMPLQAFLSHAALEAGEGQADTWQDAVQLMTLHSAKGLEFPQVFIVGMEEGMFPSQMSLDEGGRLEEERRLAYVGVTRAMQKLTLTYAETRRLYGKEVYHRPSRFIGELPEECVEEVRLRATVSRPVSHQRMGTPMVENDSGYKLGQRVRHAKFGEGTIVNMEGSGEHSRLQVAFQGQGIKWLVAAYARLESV

T2: UvrD (helicase II), native untagged (E. coli, UniProt P03018 1-720)
T2 construct: UvrD (helicase II), E. coli MG1655, whole coding region from start to stop codon (720 residues); also called full-length UvrD; wild-type UvrD; source: E. coli BL21(DE3), pETDUET-UvrD, purified (heparin, MonoQ)
T2 sequence (looked up): T1 sequence (looked up)

T3: λ cI-UvrB 251–547 (1b3) fusion protein (E. coli, UniProt P0A8F8 251-547)
T3 construct: UvrB, E. coli, residues 251-547 (domains 1b and 3); also called UvrB domains 1b and 3; source: bacterial two-hybrid fusion, pRA03 derivative, in E. coli KS1; not shown: λ cI residues 1–236, N-terminal, kept
T3 sequence (looked up): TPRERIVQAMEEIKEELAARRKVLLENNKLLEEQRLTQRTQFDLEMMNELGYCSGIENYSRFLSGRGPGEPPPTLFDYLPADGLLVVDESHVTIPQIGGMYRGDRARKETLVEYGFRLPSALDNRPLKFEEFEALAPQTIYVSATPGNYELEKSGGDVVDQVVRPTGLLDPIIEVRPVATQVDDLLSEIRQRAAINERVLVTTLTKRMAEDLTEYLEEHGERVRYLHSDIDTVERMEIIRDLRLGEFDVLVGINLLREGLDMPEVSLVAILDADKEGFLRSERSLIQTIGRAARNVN

T4: λ cI-UvrB 527–673 (4) fusion protein (E. coli, UniProt P0A8F8 527-673)
T4 construct: UvrB, E. coli, residues 527-673 (domain 4); also called UvrB domain 4; source: bacterial two-hybrid fusion, pRA03 derivative, in E. coli KS1; not shown: λ cI residues 1–236, N-terminal, kept
T4 sequence (looked up): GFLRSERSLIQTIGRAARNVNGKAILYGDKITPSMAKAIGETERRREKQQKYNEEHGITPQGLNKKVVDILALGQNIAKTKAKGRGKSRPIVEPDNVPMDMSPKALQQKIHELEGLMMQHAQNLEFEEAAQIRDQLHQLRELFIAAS

T5: λ cI-UvrB 35–252 (1a2) fusion protein (E. coli, UniProt P0A8F8 35-252)
T5 construct: UvrB, E. coli, residues 35-252 (domains 1a and 2); also called UvrB fragment containing domains 1a and 2; source: bacterial two-hybrid fusion, pRA03 derivative, in E. coli KS1; not shown: λ cI residues 1–236, N-terminal, kept
T5 sequence (looked up): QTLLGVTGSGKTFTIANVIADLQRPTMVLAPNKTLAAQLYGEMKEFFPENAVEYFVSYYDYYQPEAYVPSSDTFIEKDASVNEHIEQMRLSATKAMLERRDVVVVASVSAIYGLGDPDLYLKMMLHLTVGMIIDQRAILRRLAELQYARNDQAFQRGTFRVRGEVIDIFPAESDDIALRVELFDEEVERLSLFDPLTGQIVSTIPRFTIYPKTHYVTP

B1: UvrB_(1–414), N-terminally His-tagged (domain or fragment, E. coli, UniProt P0A8F8 1-414, looked up)
chain: MSKPFKLNSAFKPSGDQPEAIRRLEEGLEDGLAHQTLLGVTGSGKTFTIANVIADLQRPTMVLAPNKTLAAQLYGEMKEFFPENAVEYFVSYYDYYQPEAYVPSSDTFIEKDASVNEHIEQMRLSATKAMLERRDVVVVASVSAIYGLGDPDLYLKMMLHLTVGMIIDQRAILRRLAELQYARNDQAFQRGTFRVRGEVIDIFPAESDDIALRVELFDEEVERLSLFDPLTGQIVSTIPRFTIYPKTHYVTPRERIVQAMEEIKEELAARRKVLLENNKLLEEQRLTQRTQFDLEMMNELGYCSGIENYSRFLSGRGPGEPPPTLFDYLPADGLLVVDESHVTIPQIGGMYRGDRARKETLVEYGFRLPSALDNRPLKFEEFEALAPQTIYVSATPGNYELEKSGGDVVDQVVR
notes: also called truncated derivative of UvrB comprising domains 1a, 2 and 1b
B2: UvrB, N-terminally hexa-His-tagged (natural protein, E. coli, UniProt P0A8F8 1-673, looked up)
chain: MSKPFKLNSAFKPSGDQPEAIRRLEEGLEDGLAHQTLLGVTGSGKTFTIANVIADLQRPTMVLAPNKTLAAQLYGEMKEFFPENAVEYFVSYYDYYQPEAYVPSSDTFIEKDASVNEHIEQMRLSATKAMLERRDVVVVASVSAIYGLGDPDLYLKMMLHLTVGMIIDQRAILRRLAELQYARNDQAFQRGTFRVRGEVIDIFPAESDDIALRVELFDEEVERLSLFDPLTGQIVSTIPRFTIYPKTHYVTPRERIVQAMEEIKEELAARRKVLLENNKLLEEQRLTQRTQFDLEMMNELGYCSGIENYSRFLSGRGPGEPPPTLFDYLPADGLLVVDESHVTIPQIGGMYRGDRARKETLVEYGFRLPSALDNRPLKFEEFEALAPQTIYVSATPGNYELEKSGGDVVDQVVRPTGLLDPIIEVRPVATQVDDLLSEIRQRAAINERVLVTTLTKRMAEDLTEYLEEHGERVRYLHSDIDTVERMEIIRDLRLGEFDVLVGINLLREGLDMPEVSLVAILDADKEGFLRSERSLIQTIGRAARNVNGKAILYGDKITPSMAKAIGETERRREKQQKYNEEHGITPQGLNKKVVDILALGQNIAKTKAKGRGKSRPIVEPDNVPMDMSPKALQQKIHELEGLMMQHAQNLEFEEAAQIRDQLHQLRELFIAAS
notes: UvrB, E. coli MG1655, whole coding region from start to stop codon (673 residues); also called full-length UvrB; source: E. coli XL1-Blue, pQE30UvrB, purified (Ni HiTrap chelating column)
B3: α-UvrD 1–280 (1a1b1a) fusion protein (domain or fragment, E. coli, UniProt P03018 1-280, looked up)
chain: MDVSYLLDSLNDKQREAVAAPRSNLLVLAGAGSGKTRVLVHRIAWLMSVENCSPYSIMAVTFTNKAAAEMRHRIGQLMGTSQGGMWVGTFHGLAHRLLRAHHMDANLPQDFQILDSEDQLRLLKRLIKAMNLDEKQWPPRQAMWYINSQKDEGLRPHHIQSYGNPVEQTWQKVYQAYQEACDRAGLVDFAELLLRAHELWLNKPHILQHYRERFTNILVDEFQDTNNIQYAWIRLLAGDTGKVMIVGDDDQSIYGWRGAQVENIQRFLNDFPGAETIRLE
notes: UvrD (helicase II), E. coli, residues 1-280 (domains 1a and 1b); also called N-terminal fragment of UvrD; UvrD domains 1a and 1b; source: bacterial two-hybrid fusion, pRA02 derivative, in E. coli KS1; not shown: RNA polymerase α subunit residues 1–248, N-terminal, kept
B4: α-UvrD 645–720 (C-extension) fusion protein (domain or fragment, E. coli, UniProt P03018 645-720, looked up)
chain: RLRATVSRPVSHQRMGTPMVENDSGYKLGQRVRHAKFGEGTIVNMEGSGEHSRLQVAFQGQGIKWLVAAYARLESV
notes: UvrD (helicase II), E. coli, residues 645-720 (unstructured C-terminal extension); also called C-terminal extension of UvrD (residues 645–720); source: bacterial two-hybrid fusion, pRA02 derivative, in E. coli KS1; not shown: RNA polymerase α subunit residues 1–248, N-terminal, kept

How the values were obtained:
[1] = tested on: UvrD1-647 (Escherichia coli MG1655); assay: DNA-dependent ATPase, poly(dT) titration (KDNA, half-maximal activity); details: NER complex: 40 mM HEPES pH 8.0, 100 mM KCl, 8 mM MgCl2, 5 mM DTT, 100 ug/ml BSA, 11% glycerol, 2 mM ATP with regeneration system, 37 C; ATPase assay …
[2] = tested on: UvrD (helicase II) (Escherichia coli MG1655); assay: as above; details: NER complex: 40 mM HEPES pH 8.0, 100 mM KCl, 8 mM MgCl2, 5 mM DTT, 100 ug/ml BSA, 11% glycerol, 2 mM ATP with regeneration system, 37 C; ATPase assay …
[3] = molecular target: T1, ^bioUvrD, full-length UvrD biotinylated …; assay: SPR; BIAcore 2000; ^bioUvrD or ^bioUvrD_(1–647) immobilised on streptavidin (SA) chip (~7000 RU); UvrB or UvrB_(1–414) injected at 0.05-4.0 μM, 20 μl/min, 25 °C; 10 mM HEPES pH 7.4, 150 mM NaCl, 3 mM EDTA, 0.005% Tween20; details: both partners purified
[4] = molecular target: T2, UvrD (helicase II), native untagged; assay: SPR; BIAcore 2000; UvrB or UvrB_(1–414) immobilised on CM5 chip by amine coupling (~8000 RU); UvrD or UvrD_(1–647) injected at 0.05-4.0 μM, 20 μl/min, 25 °C; 10 mM HEPES pH 7.4, 150 mM NaCl, 3 mM EDTA, 0.005% Tween20; details: both partners purified
[5] = molecular target: T3, λ cI-UvrB 251–547 (1b3) fusion protein; assay: two-hybrid; bacterial 2-hybrid (Dove and Hochschild) in E. coli KS1: UvrD fragments fused to RNA polymerase α 1–248, UvrB fragments fused to λ cI 1–236; chromosomal lacZ reporter, β-galactosidase in Miller Units; LB with 1 mM IPTG, 30 °C, mid-log phase; details: partners not purified
[6] = molecular target: T4, λ cI-UvrB 527–673 (4) fusion protein; assay: as above; details: partners not purified
[7] = molecular target: T5, λ cI-UvrB 35–252 (1a2) fusion protein; assay: as above; details: partners not purified

Molecule	binding result [3]	binding result [4]	β-galactosidase activity [7]	also measured
poly(dT)	–	–	–	K half (uM nucleotides) [1]: 2.5; K half (uM nucleotides) [2]: 0.54
B1	binds	binds	–	–
B2	binds	binds	–	–
B3	–	–	111 Miller Units	β-galactosidase activity [5]: 336 Miller Units; β-galactosidase activity [6]: 86 Miller Units
B4	–	–	140 Miller Units	–
